49 molecules from patent publication US20170253633A1 (IMMATICS BIOTECHNOLOGIES, published 2017) can be followed below.

Non-standard residues stand in square brackets, D forms with d. No end group written: not given here. pS = N[C@@H](COP(=O)(O)O)C(=O)O

The first test addresses T1, HLA-A*02:01 (human).
T1 construct: MHC monomer first loaded with a UV-sensitive peptide, which is cleaved by UV and exchanged with the test peptide; captured on streptavidin plates; also called peptide-receptive MHC molecules
The test can be described thus: UV-ligand exchange + anti-b2m ELISA; +++ = peptide exchange yield >50. An excerpt: (§1) Candidate peptides for T cell based therapies according to the present invention were further tested for their MHC binding capacity (affinity). The individual peptide-MHC complexes were produced by UV-ligand exchange, where a UV-sensitive peptide is cleaved upon UV-irradiation, and exchanged with the peptide of interest as analyzed. Only peptide candidates that can effectively bind and stabilize the peptide-receptive MHC molecules prevent dissociation of the MHC complexes. To determine the yield of the exchange reaction, an ELISA was performed based on the detection of the light chain (β2m) of stabilized MHC complexes. The assay was performed as generally described in Rodenko et al. (Rodenko et al., 2006).
(§2) 96 well MAXISorp plates (NUNC) were coated over night with 2 ug/ml streptavidin in PBS at room temperature, washed 4× and blocked forth at 37° C. in 2% BSA containing blocking buffer. Refolded HLA-A*02:01/MLA-001 monomers served as standards, covering the range of 15-500 ng/ml. Peptide-MHC monomers of the UV-exchange reaction were diluted 100 fold in blocking buffer. Samples were incubated for 1 h at 37° C., washed four times, incubated with 2 ug/ml HRP conjugated anti-β2m for 1 h at 37° C., washed again and detected with TMB solution that is stopped with […]. Absorption was measured at 450 nm. Candidate peptides that show a high exchange yield (preferably higher than 50%, most preferred higher than 75%) are generally preferred for a generation and production of antibodies or fragments thereof, and/or T cell receptors or fragments thereof, as they show sufficient avidity to the MHC molecules and prevent dissociation of the MHC complexes.
Take QIWDKILSV (gene: DHRS2): the peptide exchange yield lay within 50 to 75%.

For SLDKGTLYI (gene: PLBD1), the peptide exchange yield is 50 to 75%.

Take NLDAATYQV (gene: SLC35A3): the peptide exchange yield lay in the range of 50 to 75%.

As for RVISSVISV (gene: ELTD1), the peptide exchange yield fell in the range of 50 to 75%.

Turning to LLQEGEVYSA (gene: PRPF8), the peptide exchange yield lay within 50 to 75%.

As for ALSFSSSAGPGLLKA (gene: KRT7), the peptide exchange yield fell in the range of 50 to 75%.

ILDEMRAQL (gene: OAS3): the peptide exchange yield lay in the range of 50 to 75%.

With ALLDEQQVNVLL (gene: ID1), the peptide exchange yield lay within 50 to 75%.

As for GLLSQGSPL (gene: GCLC), the peptide exchange yield lay within 50 to 75%.

For SLFTGLRSI (genes: DUOX2, DUOX1), the peptide exchange yield lay in the range of 50 to 75%.

For the molecule FLI[pS]LIISV (gene: TAS2R9) [FLIJLIISV], the peptide exchange yield lay within 50 to 75%.

As for SIVDFLITA (gene: PPP1R13L), the peptide exchange yield was in the range of 50 to 75%.

As to LLAGLLVGV (gene: C1orf159), the peptide exchange yield was 50 to 75%.

Turning to GLYEGLDWL (genes: ARF3, TRIM23, ARF1, ARF4), the peptide exchange yield lay in the range of 50 to 75%.

Take SLQSFIHGV (gene: TMC7): the peptide exchange yield is 50 to 75%.

On to SLWEENQAL (gene: LAMA5), for which the peptide exchange yield lay in the range of 50 to 75%.

Regarding TMIVSLAAV (gene: ARL6IP1), the peptide exchange yield was 50 to 75%.

Regarding AVVSSVNTV (gene: SNCG), the peptide exchange yield lay in the range of 50 to 75%.

Consider FLDPATPRV (gene: TGIF1), for which the peptide exchange yield lay in the range of 50 to 75%.

On to KLTNGIWVL (gene: AP1B1), for which the peptide exchange yield lay in the range of 50 to 75%.

With ILLDTPLFLL (gene: SERHL2), the peptide exchange yield was 50 to 75%.

Regarding LLDLIQTKV (genes: AP2B1, AP1B1), the peptide exchange yield lay in the range of 50 to 75%.

With QMFEGQILDV (gene: AIM1L), the peptide exchange yield was 50 to 75%.

As to TVGPGLLGV (gene: VWF), the peptide exchange yield was 50 to 75%.

For ALADGVPVAL (gene: AP5B1), the peptide exchange yield was 50 to 75%.

On to HLLDSKVPSV (gene: ITGB4), for which the peptide exchange yield was 50 to 75%.

YLFPETEFI (gene: TBX3): the peptide exchange yield is 50 to 75%.

Turning to YLIGLDPENLAL (gene: CROT), the peptide exchange yield lay in the range of 50 to 75%.

For GMTELYFQL (gene: PRKDC), the peptide exchange yield is 50 to 75%.

With ALASLENHV (gene: TRIM33), the peptide exchange yield lay within 50 to 75%.

NLHNSYYSV (gene: CCNG2): the peptide exchange yield lay within 50 to 75%.

ALIGDDVGL (gene: C17orf85): the peptide exchange yield fell in the range of 50 to 75%.

With ALDPASISV (gene: DCUN1D1), the peptide exchange yield is 50 to 75%.

For a further test, the target named is T1, HLA-A*02:01. In words: UV-ligand exchange + anti-b2m ELISA; ++++ = peptide exchange yield >75%.
Source text: as §1, §2
In the case of ALLDGRVQL (gene: AGRN), the peptide exchange yield was over 75%.

On to ILLQASVQV (gene: TMPRSS4), for which the peptide exchange yield is over 75%.

Turning to TLTSKLYSL (gene: UQCR10), the peptide exchange yield was over 75%.

As for ILEPSLYTV (gene: COPZ1), the peptide exchange yield was over 75%.

Take AMAELRVVV (gene: CYP4F22): the peptide exchange yield is over 75%.

Regarding GLWHGMFANV (gene: DIP2B), the peptide exchange yield was over 75%.

With ILTSIQSLL (genes: UBE2A, UBE2B), the peptide exchange yield is over 75%.

With GLDPLGYEIQL (gene: NUP107), the peptide exchange yield is over 75%.

With KLWGQSIQL (gene: SWT1), the peptide exchange yield was over 75%.

Turning to GVALTVTGV (gene: FLOT2), the peptide exchange yield was over 75%.

Regarding ALFPHLLQPVL (gene: CSE1L), the peptide exchange yield is over 75%.

For SMFGAGLTV (gene: ATP6V0B), the peptide exchange yield is over 75%.

In the case of YILEGEPGKV (gene: SRP68), the peptide exchange yield was over 75%.

With FVFEPPPGV (gene: DYNC1H1), the peptide exchange yield is over 75%.

Consider SLLRVGWSV (genes: BSCL2, HNRNPUL2), for which the peptide exchange yield is over 75%.

With NLAGVYSEV (gene: DRG1), the peptide exchange yield is over 75%.
